# Laboratory results as given in article PMC10063552.
# Key:
# Assay in all cases: enzyme inhibition assay (cleavage of a chromogenic substrate, fit to Morrison's tight binding equation); MMP-2ACT (0.6 nM), MMP-9CAT (3 nM) or MMP-14CAT (1 nM) incubated with 0-25 nM N-TIMP2 variant in 50 mM HEPES, 10 mM CaCl2, 0.05% Brij-35, 1 mM DTNB, pH 7.5, 1 h at 37 °C; then 100 µM chromogenic substrate, absorbance at 412 nm at 37 °C; Ki from three independent experiments
# [1] = target: activated MMP-2 (MMP-2ACT) (human)
# [2] = target: human MMP-9 catalytic domain (MMP-9CAT) (human) (UniProt P14780)
# [3] = target: human MMP-14 catalytic domain (MMP-14CAT) (human) (UniProt P50281)
Substance,Ki [1],Ki [2],Ki [3]
N-TIMP2-A70DOPA (from UniProt P16035 27-153) (domain or fragment),0.785 nM,0.452 nM,10.6 nM
N-TIMP2-A70HqAla (from UniProt P16035 27-153) (domain or fragment),16.7 nM,1.93 nM,27.2 nM
N-TIMP2-L100DOPA (from UniProt P16035 27-153) (domain or fragment),1 nM,0.849 nM,14.2 nM
N-TIMP2-S2DOPA (from UniProt P16035 27-153) (domain or fragment),3.14 nM,0.623 nM,14.6 nM
N-TIMP2-S2HqAla (from UniProt P16035 27-153) (domain or fragment),97.7 nM,70.4 nM,97.7 nM
N-TIMP2-S69DOPA (from UniProt P16035 27-153) (domain or fragment),0.46 nM,0.468 nM,21.4 nM
N-TIMP2-S69HqAla (from UniProt P16035 27-153) (domain or fragment),0.606 nM,0.449 nM,11.5 nM
N-TIMP2-Y36HqAla (from UniProt P16035 27-153) (domain or fragment),0.413 nM,0.543 nM,4.72 nM
